Experimental data reported in patent publication US20180318419A1 (YALE UNIVERSITY, published 2018).
Positions count from the first letter of the chain named. In names and notes the source's numbering stands. Values belong to the binder of their own block, whether it stands above or below them.

Experiments:
[1] = target: T1, human leucine rich repeat containing 4C (LRRC4C) (human, UniProt Q9HCJ2 45-640); assay: genome-scale human receptor array; transfected HEK293T cells, anti-Fc FMAT blue secondary antibody
T1 construct: also called human LRRC4; NGL1
T1 sequence: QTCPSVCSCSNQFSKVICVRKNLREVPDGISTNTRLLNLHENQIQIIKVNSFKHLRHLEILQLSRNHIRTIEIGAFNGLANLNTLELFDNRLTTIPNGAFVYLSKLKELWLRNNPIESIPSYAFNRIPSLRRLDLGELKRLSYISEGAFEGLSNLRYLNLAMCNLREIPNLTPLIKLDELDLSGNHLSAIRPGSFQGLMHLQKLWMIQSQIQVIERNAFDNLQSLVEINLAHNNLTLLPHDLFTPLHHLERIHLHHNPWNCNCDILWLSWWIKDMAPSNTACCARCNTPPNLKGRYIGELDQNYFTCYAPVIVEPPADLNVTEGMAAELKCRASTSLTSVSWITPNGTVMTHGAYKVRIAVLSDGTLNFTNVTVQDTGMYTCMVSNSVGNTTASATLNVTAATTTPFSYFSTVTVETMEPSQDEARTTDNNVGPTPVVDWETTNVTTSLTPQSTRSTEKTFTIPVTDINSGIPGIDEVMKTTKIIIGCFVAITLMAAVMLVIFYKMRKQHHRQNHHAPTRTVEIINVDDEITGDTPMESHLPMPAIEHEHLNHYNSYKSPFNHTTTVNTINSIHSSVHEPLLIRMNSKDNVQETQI
Excerpt: (§1) To identify the ligand for Siglec 15, a Siglec 15-Fc fusion protein was generated by fusing the extracellular domain of each molecule with a mouse or human Fc tag (Dong H, et al., Nat Med. 1999; 5(12): 1365-9) and screened in the newly established genome scale human receptor array (Yao, S et al., Immunity 2011, 34(5):729-40). Briefly, the complete human membrane gene library containing over 6,200 genes was collected, maintained, and diluted by OPTI-MEM media and placed individually into four 1,536-well plates at 40 ng/well, through a robotic system. Lipofectamine 2000 was added to each well and mixed with plasmids for 30 minutes. Two thousand HEK293T cells were added subsequently to each well to perform transient transfection. Eight hours after transfection, 10 ng of human Siglec 15-Fc and anti-Fc FMAT blue secondary antibody were added to each well. The plates were read 24 hours after transfection using the Applied Biosystems 8200 cellular detection system and analyzed using the CDS 8200 software. Human Fc Receptor genes served as internal positive controls for the assay.

[2] = target: T2, human myelin-associated glycoprotein (MAG) (human, UniProt P20916 20-626); assay: as above
T2 construct: Expressed on transfected HEK293T cells from the human membrane gene library; also called Siglec 4; human MAG
T2 sequence: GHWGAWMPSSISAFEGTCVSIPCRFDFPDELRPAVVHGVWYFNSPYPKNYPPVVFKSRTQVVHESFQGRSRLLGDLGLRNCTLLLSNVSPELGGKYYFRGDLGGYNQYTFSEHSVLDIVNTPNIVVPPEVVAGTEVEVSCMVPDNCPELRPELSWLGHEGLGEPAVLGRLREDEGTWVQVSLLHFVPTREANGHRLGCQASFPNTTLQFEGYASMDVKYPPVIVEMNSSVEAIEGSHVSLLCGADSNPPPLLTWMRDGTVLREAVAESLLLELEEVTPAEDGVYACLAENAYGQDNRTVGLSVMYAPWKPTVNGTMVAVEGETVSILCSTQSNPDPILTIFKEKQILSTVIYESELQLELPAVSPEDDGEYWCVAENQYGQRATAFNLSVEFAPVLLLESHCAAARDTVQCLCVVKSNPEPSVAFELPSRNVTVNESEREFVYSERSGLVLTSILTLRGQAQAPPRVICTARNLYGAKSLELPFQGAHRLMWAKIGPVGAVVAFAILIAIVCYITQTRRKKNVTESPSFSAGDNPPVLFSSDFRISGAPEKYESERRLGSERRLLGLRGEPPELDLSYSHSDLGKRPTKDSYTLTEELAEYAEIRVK
Excerpt: as §1

MAG (species not stated) = target: T3, MAG (species not stated) (Homo sapiens (Human), UniProt P20916 20-626, limits assumed); assay: binding of Siglec 15 point mutant, FIG. 7
T3 construct: also called myelin-associated glycoprotein
T3 sequence: T2 sequence

[3] = target: T4, LRRC4C (species not stated) (Homo sapiens (Human), UniProt Q9HCJ2 45-640, limits assumed); assay: binding of Siglec 15 point mutant, FIG. 7
T4 construct: also called leucine rich repeat containing 4C
T4 sequence: T1 sequence

binding result [1]: binds | binding result [2]: binds
B1: human Siglec 15-Fc fusion protein (Fc fusion)
chain: FVRTKIDTTENLLNTEVHSSPAQRWSMQVPPEVSAEAGDAAVLPCTFTHPHRHYDGPLTAIWRAGEPYAGPQVFRCAAARGSELCQTALSLHGRFRLLGNPRRNDLSLRVERLALADDRRYFCRVEFAGDVHDRYESRHGVRLHVTAAPRIVNISVLPSPAHAFRALCTAEGEPPPALAWSGPALGNSLAAVRSPREGHGHLVTAELPALTHDGRYTCTAANSLGRSEASVYLFRFHGASGAST
notes: not shown: mouse or human Fc tag

binding result (MAG (species not stated)): no binding | binding result [3]: no binding
B2: Siglec 15 R143A mutant (other)
chain: B1 chain with R124A
notes: also called R143A mutation
